Where a chain is given by its changes, count along the chain named. Numbers in names are those of the source. Where “and” joins values, the source holds several entries; their conditions need not be identical. Equal values may be shown once. Entries after “also recorded” stand apart in the source; their conditions may differ. Read-outs that look alike come from different tables or passages of the source.
Experiments:
[1] = for heptadecane product yield of wild-type ADO compared with triple mutant E196A/E200A/D201A of ADO: both incubated with AAR
Procedure: For measuring the enzymatic activity of AAR, the AAR protein at the concentration of 20 µM was mixed with 2 mM NADPH and 0.5 mM stearoyl-CoA in a 100 µL reaction buffer containing 20 mM HEPES pH 7.5, 200 mM KCl, 0.5 mM MgCl2, and 0.5 mM TCEP. […] The ferrodoxin and FNR are recombinant proteins from cyanobacterial strains Synechocystis sp. […] PCC 7942, respectively, and were added into the reaction buffer for supplying electrons for the reduction of ADO. The mixture was incubated at 30 °C for 5 h. The produced octadecanal and heptadecane were extracted by addition of an equal volume of ethyl acetate (Sigma Aldrich, HPLC grade) and centrifuged at 13,000 × g for 15 min at room temperature. The extraction step was repeated for three times. The extracted supernatant was pooled together, dried with nitrogen gas, and then resolved in 20 µL ethyl acetate for the GC-MS measurement.
The concentration of octadecanal and heptadecane was measured using an Agilent 7890 A gas chromatograph coupled with an Agilent 7000B QQQ mass spectrometer. A total of 2 µL sample was loaded with the helium as the carrier gas onto the chromatographic column HP-5ms (30 mM × 0.25 mM ID, 0.25 μm; Agilent) at the flow rate of 1.3 ml min^−1. The injector temperature maintained at 300 °C with spotless mode. The GC oven settings were as follows: initial temperature 75 °C, held for 5 min, then at 40 °C min^−1, increased to 325 °C and held for 5 min. Ionization mode of EI (70 eV, 230 °C) and full scan of 50–550 m/z were chosen for MS detection. The standard curve was plotted based on the measuring of the commercial octadecanal and heptadecane (Sigma Aldrich) at a gradient concentration (from 3.125 to 75 µg mL^−1). Data were acquired and processed using MassHunter Workstation Software and the NIST database.

[2] = Enzymatic activity assay of AAR toward stearoyl-CoA (octadecanal by GC-MS); assay type: biochemical, Synechococcus elongatus PCC 7942
Text: PCC 6803 and Synechocystis sp. […] The extraction step was repeated for three times.

[3] = ITC; for Kd: read-out: KD value, binding with stearoyl-CoA, presence of potassium ion (+K+, 200 mM KCl), N.D. = not detected; for binding of AAR mutant with stearoyl-CoA (in words): +K+
Procedure: (§1) The binding affinity of AAR with ADO or stearoyl-CoA was measured by isotheral titration calorimetry (ITC) using a MicroCal Auto-ITC200 microcalorimeter (GE Healthcare Bio-sciences, Pittsburgh, PA). […] Wild type or mutants of ADO (or AAR) were placed into the sample cell (200 µL working volume) at a final concentration of 30 µM (60 µM for AAR) and was titrated with successive 2-µL injections of AAR protein with concentration of 500 µM (or ADO protein with concentration of 1 mM). Titrating AAR (500 µM) or ADO (1 mM) into the same buffer was performed as a control to determine the background correction. […] Injection of stearyol-CoA into the reaction buffer was performed as control to determine background correction.

[4] = target: T1, acyl-acyl carrier protein (acyl-ACP) reductase from Synechococcus elongatus PCC 7942, wild type, His-tag … (Synechococcus elongatus PCC 7942, UniProt Q54765 1-341); experiment: ITC; ADO (wild type or mutant) in the sample cell at 30 µM, titrated with 2-µL injections of 500 µM AAR; 25 mM Tris-HCl pH 7.5, 1 mM TCEP; details: both partners purified
T1 construct: acyl-ACP reductase (AAR), Synechococcus elongatus PCC 7942, gene Synpcc7942_1594; complete protein of 341 residues; after TEV cleavage ENLYFQ probably stays at the C-terminus (surmised); also called AAR; SeAAR; not shown: His6, C-terminal, cleaved
T1 sequence (looked up): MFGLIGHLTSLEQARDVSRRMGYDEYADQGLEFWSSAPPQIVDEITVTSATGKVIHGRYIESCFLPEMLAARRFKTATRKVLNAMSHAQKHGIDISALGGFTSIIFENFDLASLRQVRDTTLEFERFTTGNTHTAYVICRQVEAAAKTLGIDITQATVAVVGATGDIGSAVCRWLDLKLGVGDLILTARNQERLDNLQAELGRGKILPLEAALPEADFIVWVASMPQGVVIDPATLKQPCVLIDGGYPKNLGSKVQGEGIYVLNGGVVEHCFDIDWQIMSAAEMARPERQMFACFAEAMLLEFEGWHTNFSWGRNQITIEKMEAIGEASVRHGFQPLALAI

AAR = target: T2, AAR (Synechococcus elongatus, UniProt Q54765); experiment: ITC binding of ADO (wild type and mutants) with AAR; design: species or system Synechococcus elongatus PCC 7942
T2 construct: modeled the complete AAR protein containing 341 amino acid residues; 22-residue C-terminal peptide with His6 (G + […]) (C, cleaved yes); made in house; host or cells: E. coli BL21(DE3) co-transformed with chaperone plasmid pG-KJE8
T2 sequence (Q54765 1-341): T1 sequence (looked up)
Procedure: as §1

[5] = target: T3, aldehyde-deformylating oxygenase from Synechococcus elongatus PCC 7942, wild type, His-tag removed (Synechococcus elongatus PCC 7942, UniProt Q54764 1-231); experiment: ITC
T3 chain: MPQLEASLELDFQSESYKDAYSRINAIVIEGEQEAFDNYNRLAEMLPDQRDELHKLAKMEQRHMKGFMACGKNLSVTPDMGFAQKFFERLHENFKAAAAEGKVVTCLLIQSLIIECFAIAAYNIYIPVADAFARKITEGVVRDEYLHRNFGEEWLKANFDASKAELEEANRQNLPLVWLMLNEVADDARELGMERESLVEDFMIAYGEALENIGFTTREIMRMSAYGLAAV

ADO = target: T4, ADO (Synechococcus elongatus, UniProt Q54764); experiment: ITC binding of AAR (wild type and mutants) with ADO; design: species or system Synechococcus elongatus PCC 7942
T4 construct: His6-tag peptide (C, cleaved yes); made in house; host or cells: E. coli BL21(DE3), without chaperone plasmid
T4 sequence (Q54764 1-231): T3 chain
Procedure: as §1

ADO wild type: aldehyde-deformylating oxygenase from Synechococcus elongatus PCC 7942, wild type recombinant protein
heptadecane product yield of wild-type ADO compared with triple mutant E196A/E200A/D201A of ADO ([1]; listed as wild type ADO): more than twice | heptadecane product yield of wild-type ADO compared with triple mutant E196A/E200A/D201A of ADO ([1]; listed as wild-type ADO): two times more product

AAR wild type: acyl-acyl carrier protein reductase from Synechococcus elongatus PCC 7942, wild type recombinant protein
Octadecanal yield, single data (data1-data3) [2]: 5.8 and 7.04 and 5.2 | binding between AAR and stearoyl-CoA for AAR incubated with NADPH (in words) [3]: not significantly affected by NADPH | Kd ([3]; listed as AAR): 90 nM | Kd ([3]; listed as apo-AAR): ~90 nM

B1: aldehyde-deformylating oxygenase from Synechococcus elongatus PCC 7942, D201A mutant (enzyme, UniProt Q54764 1-231, looked up)
chain: T3 chain with D201A
notes: aldehyde-deformylating oxygenase (ADO), Synechococcus elongatus PCC 7942, gene Synpcc7942_1593; Made by PCR on pET24a-ADO; also called ADO D201A; source: E. coli BL21(DE3), purified (same protocol as wild-type ADO); not shown: His6, C-terminal, cleaved
Kd [4]: 4900 ± 1400 nM

B2: ADO E200A (protein)
chain: T3 chain with E200A
modifications: left off: His6, C-terminal, cleaved
binding of ADO mutant with AAR (in words) (AAR): significantly reduced binding affinity with AAR

B3: ADO E196A/E200A/D201A (protein)
chain: T3 chain with E196A, E200A, D201A
modifications: left off: His6, C-terminal, cleaved
yield of octadecanal compared with the wild type ADO reaction system (in words) ([1]; AAR incubated with wild type or triple mutant ADO): similar | binding of ADO mutant with AAR (in words) (AAR): completely lose their capability to bind AAR; also recorded: completely abolished the capability of ADO to bind with AAR

B4: ADO E196A (protein)
chain: T3 chain with E196A
modifications: left off: His6, C-terminal, cleaved
binding of ADO mutant with AAR (in words) (AAR): significantly reduced binding affinity with AAR

B5: ADO E200A/D201A (protein)
chain: T3 chain with E200A, D201A
modifications: left off: His6, C-terminal, cleaved
binding of ADO mutant with AAR (in words) (AAR): completely lose their capability to bind AAR; also recorded: completely abolished the capability of ADO to bind with AAR

B6: aldehyde-deformylating oxygenase from Synechococcus elongatus PCC 7942, E208A mutant (enzyme, UniProt Q54764 1-231, looked up)
chain: T3 chain with E208A
notes: aldehyde-deformylating oxygenase (ADO), Synechococcus elongatus PCC 7942, gene Synpcc7942_1593; Made by PCR on pET24a-ADO; also called ADO E208A; source: E. coli BL21(DE3), purified (same protocol as wild-type ADO); not shown: His6, C-terminal, cleaved
Kd [4]: 14800 ± 3700 nM

B7: aldehyde-deformylating oxygenase from Synechococcus elongatus PCC 7942, E211A mutant (enzyme, UniProt Q54764 1-231, looked up)
chain: T3 chain with E211A
notes: aldehyde-deformylating oxygenase (ADO), Synechococcus elongatus PCC 7942, gene Synpcc7942_1593; Made by PCR on pET24a-ADO; also called ADO E211A; source: E. coli BL21(DE3), purified (same protocol as wild-type ADO); not shown: His6, C-terminal, cleaved
Kd [4]: 2800 ± 850 nM

B8: acyl-acyl carrier protein (acyl-ACP) reductase from Synechococcus elongatus PCC 7942, wild type, His-tag removed (enzyme)
chain: T1 sequence (looked up)
Ka [5]: 496000 M⁻¹

B9: AAR R73A (protein)
chain: T1 sequence (looked up) with R73A
modifications: left off: His6, C-terminal, cleaved
binding of AAR mutant with ADO (in words) (ADO): abolish the binding capability with ADO

B10: AAR Y247F: AAR single mutant Y247F (protein)
chain: T1 sequence (looked up) with Y247F
modifications: left off: His6, C-terminal, cleaved
Octadecanal yield [2]: 61.1 ± 6.76 µg/mL | Octadecanal yield, EVERAGE ([2]; source data of Table 3, +K+): 61.0928 | Octadecanal yield, single data (data1-data4) ([2]; source data of Table 3, +K+): 68.55 and 59.38 and 55.3483 | binding of AAR mutant with ADO (in words) (ADO): almost the same as that of AAR wild type | binding of AAR mutant with stearoyl-CoA (in words) [3]: decreased binding affinity | binding of AAR mutant with stearoyl-CoA (in words) ([3]; listed as Y247F mutant): reduced binding affinity with stearoyl-CoA

B11: AAR K80A (protein)
chain: T1 sequence (looked up) with K80A
modifications: left off: His6, C-terminal, cleaved
binding of AAR mutant with ADO (in words) (ADO): abolish the binding capability with ADO

B12: AAR R79A (protein)
chain: T1 sequence (looked up) with R79A
modifications: left off: His6, C-terminal, cleaved
binding of AAR mutant with ADO (in words) (ADO): abolish the binding capability with ADO

Source: PMC7089970, “Structural insights into catalytic mechanism and product delivery of cyanobacterial acyl-acyl carrier protein reductase” (Nature Communications, 2020)
